The target in series [1] is His-tagged DcNMCP1 (Daucus carota nuclear matrix constituent protein 1 with an N-terminal 6x His tag) (Daucus carota). The series can be described thus: transmission electron microscopy after low-angle rotary metal shadowing; purified protein in urea dialysed against H2O (30-120 min) to induce refolding; sprayed in 40% glycerol on mica, platinum-carbon shadowing; monomers to coiled-coil dimer.

Series [2] deals with the molecule itself. The series is described as above.

On to “His-tagged DcNMCP1 (Daucus carota nuclear matrix constituent protein 1 with an N-terminal 6x His tag) (from UniProt A0A166B1A6 1-1119) (natural protein)”, for which the stoichiometry N (as a rule, a count of units in the complex or per binding partner) in series [1] was 2.

B1: His-tagged DcNMCP2 (Daucus carota nuclear matrix constituent protein 2 with an N-terminal 6x His tag) (natural protein, UniProt D2YZU8 1-927, looked up)
chain: MASPRLTVIQSEKTTVTSSRVSRSSMSDDDIWKRLQEAGFDEDSIKRRDKASLIAYITKLEAEIYDHQYQMGLLIMERKEWGSKFERVEAALNSAELMRKHDKNLYLKDLAEAKKREENLKKAIEIERECLANIEKTLHELRAEYAETKVMADSKLVEARSMIEDALKKLSEADAKKHAAESLEAEASRYHSAAERKLHEVEAREDDLRRRATSFKTECDTKEEEILHERRLLNERQKALQQSQQRLVDGQDLLNKRESHIFERTQELNRKEKELEASKLKQEEELQALVEQQANLETKASSLSLREEVITKSELEVKKREEELCVLQEKLEKKESERIQQLLANYEASLSMKKSEFEAELEVKRKSVHDDIENKRRDWELREVDLHHREELILEKEHELEMQSRAVVDKERDLAGRFSLLEEKENRLHAVEKEIESKEALLQKEKEEIISSKLDIQRSLDALEDEKKQLHHAEEKMEAMKSETNELCVLESKLKEEIETIRAQKQELETEADEMKELKLKFEIEWQSIDEKRKELQKEAECINEQRESLELTLKDERNSLKLEKDAMRDEYMRNNESLSRDREDFMKKMEHERSEWFSKIQKERSDYLLAIEVQSKDLEDRLAKRREEIESYLAERERAFEEEKKKELMRMDTLRETLARETEQVNAELNRLDTERREINLDRERRDREWAELNTLIEELKVQRQKLEKQRELMRADKEEILVQIEHLKQLEDLKVVPDRIALTDIQQSDLQPSKRVSARRSLKRQSGLDSGCRAEDNGNASSGNGSVILSPPLSSPFSWLKRCASSLLEQKVSNKKMRHSEEIITPSTIPARLNAPDDEHAVISANQQTPVHAKETTVYIDKIITIREVTSFNDAIVDGNNQNLEEALSQRAEEKLEDDNNIESEKLEKNGEVDPKIMQASLTEQ
notes: Nuclear matrix constituent protein 2 (NMCP2) of Daucus carota; longest ORF of cDNA clone pD2m, amplified from the start codon to the stop codon; the PCR product included a 2808 bp ORF; GenBank AB514509; also called 6x His-tagged DcNMCP2; product of pDC2mN; not shown: His6, N-terminal, kept
B1: the “stoichiometry N” value in series [2] came to 2.

These data come from article PMC8483785, “The plant nuclear lamina proteins NMCP1 and NMCP2 form a filamentous network with lateral filament associations” (Journal of Experimental Botany, 2021).
